B1: CPEB3 Ribozyme (parent)
chain: GGGGGCCACAGCAGAAGCGUUCACGUCGCGGCCCCUGUCAGAUUCUGGUGAAUCUGCGAAUUCUGCUGU

The variants in this series derive from B1. Put plainly: self-cleavage, relative activity (ratio to wild type); higher = more cleavage; co-transcriptional.
For GGGGGCCACAGCAGCAGCGUUCACGUCGCGGCCCCUGUCAGAUUCUGGUGAAUCUGCGAAUUCUGCAGU [A15C U67A], the self-cleavage was 0.916. With GGGGGCCACAGCAGCAGCGUUCACGUCGCGGCUCCUGUCAGAUUCUGGUGAAUCUGCGAAUUCUGCUGU [A15C C33U], the self-cleavage was determined as 0.911. GGGGGCCACAGCAGGAGCGUUCACGUCGCGGCCCCUGUCAGUUUCUGGUGAAUCUGCGAAUUCUGCUGU [A15G A42U]: the self-cleavage came out at 0.946.

Consider GGGGGCCACAGCAGCAGCGUUCACGUCGAGGCCCCUGUCAGAUUCUGGUGAAUCUGCGAAUUCUGCUGU [A15C C29A], for which the self-cleavage was found to be 0.297. As for GGGGGCCACAGCAGCAGCGUUCAGGUCGCGGCCCCUGUCAGAUUCUGGUGAAUCUGCGAAUUCUGCUGU [A15C C24G], the self-cleavage came to 0.269.

For the variant GGGGGCCACAGCAGGAGCGUUCACGUCGCGGCCCCUGUGAGAUUCUGGUGAAUCUGCGAAUUCUGCUGU [A15G C39G], the self-cleavage amounted to 0.928. On to GGGGGCCACAGCAGGAGCGUUCACGUCGCGGCCCCUGUUAGAUUCUGGUGAAUCUGCGAAUUCUGCUGU [A15G C39U], for which the self-cleavage was determined as 0.893. With GGGGGCCACAGCAGCAGCGUUGACGUCGCGGCCCCUGUCAGAUUCUGGUGAAUCUGCGAAUUCUGCUGU [A15C C22G] the figure was 0.0813. Consider GGGGGCCACAGCAGCAGCGUUAACGUCGCGGCCCCUGUCAGAUUCUGGUGAAUCUGCGAAUUCUGCUGU [A15C C22A], for which the self-cleavage stood at 0.148.

Consider GGGGGCCACAGCAGCAGCGUUCACGUCGCGGCCCCUGUCAGAUUCUGGUGAACCUGCGAAUUCUGCUGU [A15C U53C], for which the self-cleavage was 0.451. With GGGGGCCACAGCAGCAGCGUUCACGUCGCGGCCCCUGUCAGAUUCUGGUGAAGCUGCGAAUUCUGCUGU [A15C U53G] the figure was 0.558; with GGGGGCCACAGCAGGAGCGUUCACGUCGUGGCCCCUGUCAGAUUCUGGUGAAUCUGCGAAUUCUGCUGU [A15G C29U], 0.358. With GGGGGCCACAGCAGGCGCGUUCACGUCGCGGCCCCUGUCAGAUUCUGGUGAAUCUGCGAAUUCUGCUGU [A15G A16C] the figure was 0.145; with GGGGGCCACAGCAGGAGCGUUCCCGUCGCGGCCCCUGUCAGAUUCUGGUGAAUCUGCGAAUUCUGCUGU [A15G A23C], 0.919. With GGGGGCCACAGCAGCAGCGUUCACGUAGCGGCCCCUGUCAGAUUCUGGUGAAUCUGCGAAUUCUGCUGU [A15C C27A] the figure was 0.091. Regarding GGGGGCCACAGCAGGAGCGUUCACGUCGCGGCCCCUGUCAGAUUCUGGUGAAUCUGUGAAUUCUGCUGU [A15G C57U], the self-cleavage stood at 0.294. As for GGGGGCCACAGCAGCAGCGUUCACGUCGCGGCCCCUGUCAGAUUCUGGUUAAUCUGCGAAUUCUGCUGU [A15C G50U], the self-cleavage is 0.878. For the variant GGGGGCCACAGCAGCAGCGUUCACGUCGCGGCCCCUGUCAGAUUCUGGUGAAUCUCCGAAUUCUGCUGU [A15C G56C], the self-cleavage came to 0.446. With GGGGGCCACAGCAGCAGCGUUCACGUCGCGGCCCUUGUCAGAUUCUGGUGAAUCUGCGAAUUCUGCUGU [A15C C35U], the self-cleavage is 0.686. On to GGGGGCCACAGCAGCAGCGUUCACGGCGCGGCCCCUGUCAGAUUCUGGUGAAUCUGCGAAUUCUGCUGU [A15C U26G], for which the self-cleavage stood at 0.586. For GGGGGCCACAGCAGGAGCGUUCACGUCGCGGCCCCUGUCCGAUUCUGGUGAAUCUGCGAAUUCUGCUGU [A15G A40C], the self-cleavage turned out to be 0.631. As for GGGGGCCACAGCAGGAGCGUUCACGUCGCGGCCCCUGUCUGAUUCUGGUGAAUCUGCGAAUUCUGCUGU [A15G A40U], the self-cleavage was 0.851.

GGGGGCCACAGCAGCAGCGUUCACGUCGCGGUCCCUGUCAGAUUCUGGUGAAUCUGCGAAUUCUGCUGU [A15C C32U]: the self-cleavage was determined as 0.853.

For the variant GGGGGCCACAGCAGCAGCGUUCACGUCGCGGCCCCUGUCAGAUUCUGGUGAAUCUGCGAAUUCUUCUGU [A15C G65U], the self-cleavage was 0.411. Turning to GGGGGCCACAGCAGCAGCGUUCACGUCGCGGCCCCUGUCAGAUUCUGGUGAAUCUGCGAAUUCUCCUGU [A15C G65C], the self-cleavage stood at 0.277. Turning to GGGGGCCACAGCAGCAGCGUUCACGUCGCGGCCCCUGUCAGAUUCUGGUGAAUCUGCUAAUUCUGCUGU [A15C G58U], the self-cleavage was determined as 0.936. As for GGGGGCCACAGCAGGAGCGUUCACGUCGCGGCCCCUGUCAGAUUCUGGUGGAUCUGCGAAUUCUGCUGU [A15G A51G], the self-cleavage was found to be 1.05. Take GGGGGCCACAGCAGGAGCGUUCACGUCGCGGCCCCUGUCAGAUUCUGGUGUAUCUGCGAAUUCUGCUGU [A15G A51U]: the self-cleavage amounted to 0.963. Consider GGGGGCCACAGCAGCACCGUUCACGUCGCGGCCCCUGUCAGAUUCUGGUGAAUCUGCGAAUUCUGCUGU [A15C G17C], for which the self-cleavage was 0.131.

For the variant GGGGGCCACAGCAGCAGCGUUCACGUCGCGGCCCCUGUCAGAUUCUGGUGAAUCUGCGAAUUCUGCUAU [A15C G68A], the self-cleavage was 0.966.

Turning to GGGGGCCACAGCAGCAGCGUUCACGUCGCGGCCUCUGUCAGAUUCUGGUGAAUCUGCGAAUUCUGCUGU [A15C C34U], the self-cleavage amounted to 0.909. Take GGGGGCCACAGCAGCAGCGUUCACGUCGCGGCCGCUGUCAGAUUCUGGUGAAUCUGCGAAUUCUGCUGU [A15C C34G]: the self-cleavage is 0.131.

On to GGGGGCCACAGCAGCAGCGUUCACGUCGCGGCCCCUGUCAGAUUGUGGUGAAUCUGCGAAUUCUGCUGU [A15C C45G], for which the self-cleavage is 0.865. The result for GGGGGCCACAGCAGCAGCGUUCACGUCGCGGCCCCUGUCAGAUUAUGGUGAAUCUGCGAAUUCUGCUGU [A15C C45A] reads 0.772; that for GGGGGCCACAGCAGCAGCGUUCACGUCGCGGCCCCUGUCAGAUUUUGGUGAAUCUGCGAAUUCUGCUGU [A15C C45U], 0.949; that for GGGGGCCACAGCAGGAGCGUUCACGUCGCGGCCCCUGUCAGAUUCUGGUGAGUCUGCGAAUUCUGCUGU [A15G A52G], 1.03. GGGGGCCACAGCAGGAGCGUUCACGUCGCGGCCCCUGUCAGAUUCUGGUGAUUCUGCGAAUUCUGCUGU [A15G A52U]: the self-cleavage was 0.959. As for GGGGGCCACAGCAGCAGCGUUCACGUCGCGGCCCCUGUCAGAUUCUGGUGAAUCUGGGAAUUCUGCUGU [A15C C57G], the self-cleavage was determined as 0.269.

For the variant GGGGGCCACAGCAGCAGCGUUCACGUCGCGGCCCCUGUCAGAUUCUGGUGAAUCUGAGAAUUCUGCUGU [A15C C57A], the self-cleavage stood at 0.282.

The values are drawn from the RNAGym collection of RNA variant scans (doi:10.7554/elife.80360).
